The assay has as its target human Tau441 (2N4R), recombinant, phosphorylated in vitro by PKA (human) (UniProt P10636). The assay can be described thus: cross-linking + other: mass photometry; BS3 amine-amine crosslinking of purified 4R tau (tau441, with or without PKA phosphorylation) with purified recombinant 14-3-3 β, 20-fold molar excess, 1× PBS pH 8.0, 30 min room temperature; mass photometry in DPBS at room temperature.

Sequence of human Tau441 (2N4R), recombinant, phosphorylated in vitro by PKA (human) (P10636 other isoform, or with tags, fused parts or gaps): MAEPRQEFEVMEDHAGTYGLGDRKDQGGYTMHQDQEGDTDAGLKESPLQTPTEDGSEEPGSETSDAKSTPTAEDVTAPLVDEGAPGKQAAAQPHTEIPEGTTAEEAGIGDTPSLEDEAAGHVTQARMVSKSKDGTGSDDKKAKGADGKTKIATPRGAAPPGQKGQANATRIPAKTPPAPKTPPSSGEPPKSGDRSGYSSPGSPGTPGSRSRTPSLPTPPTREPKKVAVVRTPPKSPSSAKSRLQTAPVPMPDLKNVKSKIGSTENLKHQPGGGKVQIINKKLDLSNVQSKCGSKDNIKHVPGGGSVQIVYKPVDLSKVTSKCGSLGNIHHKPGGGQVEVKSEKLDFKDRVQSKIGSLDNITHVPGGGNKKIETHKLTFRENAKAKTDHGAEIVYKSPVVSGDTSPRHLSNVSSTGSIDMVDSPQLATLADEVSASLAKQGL

“purified recombinant 14-3-3 β (from UniProt P31946 1-246) (natural protein)”: the stoichiometry N (14-3-3-β per tau) was found to be 2.

For the origin of these results see PMC10035768.
